The text below walks through data of patent US11161912B2, “Heparanase-neutralizing monoclonal antibodies” (Technion Research & Development Foundation Limited, priority 2015, dated 2021).

“Also recorded” adds a separate entry of the source.

For assay [1], the target named is T1, heparanase (latent 65 kDa or GS3 constitutively active) (Homo sapiens, UniProt Q9Y251).
T1 construct: host or cells: added exogenously to HEK 293 cells
T1 sequence (Q9Y251 36-543): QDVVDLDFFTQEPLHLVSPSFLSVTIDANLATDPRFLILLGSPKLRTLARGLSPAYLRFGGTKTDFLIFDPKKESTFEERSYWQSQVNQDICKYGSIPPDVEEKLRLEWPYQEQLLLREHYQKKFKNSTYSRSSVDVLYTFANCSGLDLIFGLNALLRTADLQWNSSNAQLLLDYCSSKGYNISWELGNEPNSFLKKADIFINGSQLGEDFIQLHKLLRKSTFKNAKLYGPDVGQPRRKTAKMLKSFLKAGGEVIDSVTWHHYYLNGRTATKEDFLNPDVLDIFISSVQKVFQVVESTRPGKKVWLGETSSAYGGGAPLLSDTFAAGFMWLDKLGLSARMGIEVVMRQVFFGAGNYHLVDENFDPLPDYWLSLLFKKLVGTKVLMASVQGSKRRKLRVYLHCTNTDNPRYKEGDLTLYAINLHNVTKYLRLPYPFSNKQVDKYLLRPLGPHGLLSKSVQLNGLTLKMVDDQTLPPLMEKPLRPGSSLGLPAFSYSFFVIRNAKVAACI
The assay can be described thus: Cellular uptake and processing of heparanase in HEK 293 cells (immunoblot). The class given is cell-based. The settings on record: mAb 10 μg/ml. The source says: (§1) Development of heparanase-neutralizing monoclonal antibodies: In order to target heparanase activity even more specifically, a panel of monoclonal antibodies (mAb) directed against the KKDC peptide (Lys158-Asn171) which comprises the substrate (HS)-binding domain of heparanase (Levy-Adam F, et al. 2005, J Biol Chem 280(21):20457-20466) were developed. In order to validate that the resulting antibodies target the heparin/HS binding domain, cellular uptake of latent 65 kDa heparanase in the absence or presence of the various newly generated mAbs was tested. This system appeared most relevant because previous studies have shown that heparanase uptake is HS-dependent (Gingis-Velitski S, et al. 2004. J Biol Chem 279(42):44084-44092). […] Moreover, liver metastasis of ESb cells was inhibited 4-5 fold by mAb 9E8 (FIG. 3C). The availability of highly specific heparanase-neutralizing mAbs led to the conclusion that heparanase enzymatic activity is required for cell invasion and tumor metastasis.
(§2) FIG. 3A. HEK 293 cells were incubated with latent 65 kDa (upper panel) or GS3 constitutively active heparanase (1 μg/ml; third panel) and the indicated mAbs (10 μg/ml). […] The mixture was then applied onto ^35S-labeled ECM-coated dishes and heparanase activity was determined as described above (lower panel). […] Quantification of the extent of CD45 staining is shown graphically in the lower panel. […]
(In western blotting, separated proteins are transferred to a membrane and probed.)

The subject of assay [2] is heparanase (latent 65 kDa or GS3 constitutively active). The description is as above. The class given is cell-based. The settings on record: GS3 1 μg/ml, mAb 10 μg/ml.
Text: as §1, §2

Another assay concerns Mouse B16 melanoma cells. The assay can be described thus: B16 melanoma experimental lung metastasis. The class given is in vivo. As to conditions: C57Bl/6 mice, given with the cells: Ab #1453 250 μg, mAb 9E8 500 μg, SST0001 400 μg; lungs after 18 days. Here is the method:
Experimental metastasis. B16 BL6 mouse melanoma (2×10^5) or LM2-4 human breast cancer cells (2×10^6) were injected into the tail vein of C57/BL mice or SCID/Beige mice (respectively) together with the indicated compound, essentially as described (Hostettler N, et al. 2007, FASEB J 21(13):3562-3572). Lungs were harvested 18 days thereafter and metastases occurrence was determined following fixation by gross inspection and histology (Weissmann et al, 2016, Proc Natl Acad Sci USA 113:704-709).
FIG. 5A. Cell invasion. Cal-27 tongue carcinoma (left panels) and U87 glioma cells (right panels) (2×10^5) were plated onto Matrigel-coated filters in the presence of mouse IgM/IgG (upper panels), mAb 9E8 (2 μg; second left and middle panels). Invading cells adhering to the lower side of the membrane were visualized after 6 h. The number of invading cells per high power field is shown graphically at the lower panels. FIG. 5B, FIG. 5C. Tumor metastasis. FIG. 5B Mouse B16 melanoma cells (2×10^5) were inoculated into the tail vein of C57Bl/6 mice (n=7) together with rabbit IgG (300 μg; Con), Ab #1453 (250 μg), mAb 9E8 (500 μg) or SST0001 (400 μg). Lungs were harvested after 18 days, photographed (lower panel) and the number of metastatic lesions was counted (upper panel; p=0.001, 0.0006, 0.0001 for Con vs. Ab 1453, Con vs. mAb 9E8 and Con vs. SST0001, respectively). […]

B1: mAb 9E8: monoclonal IgM raised against KKDC peptide (Lys158-Asn171) of heparanase; VH SEQ ID NO: 7, VL SEQ ID NO: 8 (antibody)
VH: EVKLLESGGGLVQPGGSLKLSCAASGFDFSRYWMSWVRQAPGKGLEWIGEINPDSSTINYTPSLKDKFIISRDNAKNTLYLQMSKVRSEDTALYYCARRGYEGNYAMDYWGQGTSVTVSSESQSFPNVFPLVSCESPLSDKNLVAMGCLAR
VL: DIVMTQAAPSVPVTPGESVSISCRSSKSLLHSNGNTYLYWFLQRPGQSPQLLIYRMSNLASGVPDRFSGSGSGTAFTLRISRVEAEDVGVYYCMQHLEYPFTFGSGTKLEIKRADAAPTVSIFPPSSEQLTSGGASVVCFL
modifications: IgM constant regions
Regarding B1, the “uptake and processing of latent 65 kDa heparanase” value in assay [1] is reported as “markedly decreased; also recorded: almost complete inhibition”. Further, the “uptake of constitutively active heparanase (GS3)” value in assay [2] is “inhibited profoundly”. Besides, the “experimental lung metastasis (number of metastatic lesions)” value in the assay on Mouse B16 melanoma cells is given as “inhibitory effect”.
